{"source": "paper PMC9521928", "biological_target": "CPXV14-His (His-tagged recombinant cowpox virus Brighton Red CPXV14) (cowpox virus (Brighton Red strain))", "test": "BLI; […] (10 μg/mL, 2 min), […]; PBS pH 7.4, 0.005% Tween-20; 25°C; steady-state fit, 1:1 binding model; […]", "note": "pKd: −log10 of the molar value."}
{"substance": "soluble recombinant murine FcγRIIB (mCD32B) ectodomain (from UniProt P08101 30-210) (receptor)", "values": [{"measurement": "pKd", "result": 8.44}]}
